# Like-named read-outs stand apart in the source and are kept apart here.
# B1: H4K3_RS73PE Fab (Fab, V domains shown)
# VH: KVQLVQSGAELKKPWSSVRVSCKASGGSFSSYAFNWVRQAPGQRLEWLGGIVPLVSSTNYAQRFRGRVTISADPETSTVYLEMTGLTSADTAVYFCAREGEGWFGRPLRAFEFWGQGTLVTVST
# VL: EIVLTQSPGTFALSPGERATLSCRASQSVSGGALAWYQQKAGQAPRLLIYDTSGRATGVPGRFSGSGSETDFSLTISRLEPEDFAVYYCQQYGTSQSTFGQGTRLETR
# B2: H4K3_SFS28EPE (antibody, V domains shown)
# VH: KVQLVQSGAELKKPWSSVRVSCKASGGEPESYAFNWVRQAPGQRLEWLGGIVPLVSSTNYAQRFRGRVTISADRSTSTVYLEMTGLTSADTAVYFCAREGEGWFGRPLRAFEFWGQGTLVTVST
# VL: EIVLTQSPGTFALSPGERATLSCRASQSVSGGALAWYQQKAGQAPRLLIYDTSGRATGVPGRFSGSGSETDFSLTISRLEPEDFAVYYCQQYGTSQSTFGQGTRLETR
# B3: PGZL1.H4K3 Fab (Fab, V domains shown)
# VH: KVQLVQSGAELKKPWSSVRVSCKASGGSFSSYAFNWVRQAPGQRLEWLGGIVPLVSSTNYAQRFRGRVTISADRSTSTVYLEMTGLTSADTAVYFCAREGEGWFGRPLRAFEFWGQGTLVTVST
# VL: EIVLTQSPGTFALSPGERATLSCRASQSVSGGALAWYQQKAGQAPRLLIYGTSGRATGVPGRFSGSGSETDFSLTISRLEPEDFAVYYCQQYGTSQSTFGQGTRLETR
# B4: PGZL1.H4K3 (antibody, V domains shown)
# VH: KVQLVQSGAELKKPWSSVRVSCKASGGSFSSYAFNWVRQAPGQRLEWLGGIVPLVSSTNYAQRFRGRVTISADRSTSTVYLEMTGLTSADTAVYFCAREGEGWFGRPLRAFEFWGQGTLVTVST
# VL: EIVLTQSPGTFALSPGERATLSCRASQSVSGGALAWYQQKAGQAPRLLIYGTSGRATGVPGRFSGSGSETDFSLTISRLEPEDFAVYYCQQYGTSQSTFGQGTRLETR
# B5: H4K3_5M (antibody, V domains shown)
# VH: KVQLVQSGAELKKPWSSVRVSCKASGGEPESYAFNWVRQAPGQRLEWLGGIVPLVSSTNYAQRFRGRVTISADPETSTVYLEMTGLTSADTAVYFCAREGEGWFGRPLRAFEFWGQGTLVTVST
# VL: EIVLTQSPGTFALSPGERATLSCRASQSVSGGALAWYQQKAGQAPRLLIYDTSGRATGVPGRFSGSGSETDFSLTISRLEPEDFAVYYCQQYGTSQSTFGQGTRLETR
# B6: H4K3_SFS28EPE Fab (Fab, V domains shown)
# VH: KVQLVQSGAELKKPWSSVRVSCKASGGEPESYAFNWVRQAPGQRLEWLGGIVPLVSSTNYAQRFRGRVTISADRSTSTVYLEMTGLTSADTAVYFCAREGEGWFGRPLRAFEFWGQGTLVTVST
# VL: EIVLTQSPGTFALSPGERATLSCRASQSVSGGALAWYQQKAGQAPRLLIYDTSGRATGVPGRFSGSGSETDFSLTISRLEPEDFAVYYCQQYGTSQSTFGQGTRLETR
# B7: H4K3_RS73PE (antibody, V domains shown)
# VH: KVQLVQSGAELKKPWSSVRVSCKASGGSFSSYAFNWVRQAPGQRLEWLGGIVPLVSSTNYAQRFRGRVTISADPETSTVYLEMTGLTSADTAVYFCAREGEGWFGRPLRAFEFWGQGTLVTVST
# VL: EIVLTQSPGTFALSPGERATLSCRASQSVSGGALAWYQQKAGQAPRLLIYDTSGRATGVPGRFSGSGSETDFSLTISRLEPEDFAVYYCQQYGTSQSTFGQGTRLETR
# B8: H4K3_5M Fab (Fab, V domains shown)
# VH: KVQLVQSGAELKKPWSSVRVSCKASGGEPESYAFNWVRQAPGQRLEWLGGIVPLVSSTNYAQRFRGRVTISADPETSTVYLEMTGLTSADTAVYFCAREGEGWFGRPLRAFEFWGQGTLVTVST
# VL: EIVLTQSPGTFALSPGERATLSCRASQSVSGGALAWYQQKAGQAPRLLIYDTSGRATGVPGRFSGSGSETDFSLTISRLEPEDFAVYYCQQYGTSQSTFGQGTRLETR
# B9: PGZL1 (antibody, V domains shown)
# VH: EVQLVQSGGEVKRPGSSVTVSCKATGGTFSTLAFNWVRQAPGQGPEWMGGIVPLFSIVNYGQKFQGRLTIRADKSTTTVFLDLSGLTSADTATYYCAREGEGWFGKPLRAFEFWGQGTVITVSS
# VL: DVVMTQSPGTLSLSPGERATLSCRASQSVSGGALAWYQQKPGQAPRLLIYDTSSRPTGVPGRFSGSGSGTDFSLTISRLEPEDFAVYYCQQYGTSQSTFGQGTRLEIK
# B10: PGZL1 Fab (Fab, V domains shown)
# VH: EVQLVQSGGEVKRPGSSVTVSCKATGGTFSTLAFNWVRQAPGQGPEWMGGIVPLFSIVNYGQKFQGRLTIRADKSTTTVFLDLSGLTSADTATYYCAREGEGWFGKPLRAFEFWGQGTVITVSS
# VL: DVVMTQSPGTLSLSPGERATLSCRASQSVSGGALAWYQQKPGQAPRLLIYDTSSRPTGVPGRFSGSGSGTDFSLTISRLEPEDFAVYYCQQYGTSQSTFGQGTRLEIK
# What was measured:
# [1] = target: MPER peptide PDT-081 (HIV-1); assay: BLI on PDT-081
# [2] = target: MPER peptide PDT-081 (HIV-1)
# [3] = target: MPER peptide PDT-081 (HIV-1); assay: ELISA on PDT-081
# [4] = target: MPER peptide PDT-081 (HIV-1); assay: BLI (Octet RED96), Fab over biotinylated peptide on streptavidin sensors
# [5] = target: MPER peptide PDT-081 (HIV-1); assay: ELISA on MPER (654-683) peptide, antibody titrated
Binder,Kd [1] [nM],koff [1] [s⁻¹],kon [1] [M⁻¹ s⁻¹],Kd [2] [nM],EC50 [3] [µg/mL],Fold Increase (ELISA EC50 over H4K3) [3] [fold],further results
B1,12.8,0.00051,39000,12.8,–,–,–
B2,–,–,–,–,0.076,2,–
B3,–,0.00051,68000,–,–,–,Kd [4]: 7.5 nM; off rate faster than that of PGZL1 [4]: 8%; on rate faster than that of PGZL1 [4]: 24%
B4,–,–,–,–,0.039,–,–
B5,–,–,–,–,0.083,2.1,–
B6,15.1,0.00054,36000,15.1,–,–,–
B7,–,–,–,–,0.09,2.3,–
B8,23.4,0.00067,29000,23.4,–,–,–
B9,–,–,–,–,–,–,EC50 (read off the curve) [5]: 0.02 µg/mL
B10,–,–,–,–,–,–,Kd [4]: 9.9 nM

# Reference: patent publication US20240124560A1
